Results on 8 molecules are retold here after patent US20100075907A1, “NEUROMEDIN U RECEPTOR AGONISTS AND USES THEREOF” (priority 2006, published 2010).

One may read the EC50 as the midpoint of the concentration-response curve. Usually IC50 stands for the concentration that gives 50% inhibition.

Holding throughout (type): cell-based
One assay addresses mouse NMUR2 (Mus musculus, UniProt Q8BZ39). Nature of the assay: FLIPR calcium mobilization assay, mouse NMUR2. Also noted: expressed in transfected cells; host or cells: FLP-In CHO or HEK-293 FLP-In cells (pcDNA5). The following applies: for % Activity: maximum response at 1 μM compared to hNMU-25; for % Activity / EC50: mouse NMUR2; for EC50: FLIPR. An excerpt:
(§1) Human, mouse or rat cDNAs encoding NMUR1 or NMUR2 (as described in Howard et al. Nature 406: 70-74 (2000) were subcloned in pcDNA5 (Invitrogen) and transfected into FLP-In CHO cells and HEK-293 FLP-In cells purchased from Invitrogen (Carlsbad, Calif.) using lipofectamine (Invitrogen). The Flp-In system allows integration and expression of a particular gene of interest at a specific genomic location utilizing the Flp recombinase from yeast. The transfected cells were selected by growth in medium containing 200 μg/mL hygromycin (Invitrogen). Populations were frozen at early passage numbers, and these stocks were used for further studies. Stable clones that expressed the mRNAs were identified functionally by FLIPR as well as by RT-PCR. […] Two different rodent NMUR1 cell lines were thus generated: one with the codon as predicted from the genomic databases and another cell line with an engineered methionine (ATG) as the start codon. Additionally, stable cell lines expressing the human receptors were generated in HEK-293/aeq17 cells which stably express the aequorin gene under the CMV promoter. The human NMUR2 cDNA was cloned into pcDNA3.1 and human NMUR1 was subcloned into pIRES-puro (Clontech, Mountain View, Calif.), after transfection cells were selected in media containing G418 and either hygromycin (NMUR2) or puromycin (NMUR1).
(§2) The NMU receptors signal primarily through Gαq/11 proteins; therefore calcium mobilization assays can be utilized for functional activity.
(§3) Stable cell lines expressing human and or rodent NMUR1 or human NMUR2 receptors were plated at a density of 12,000 cells per well overnight on poly-lysine coated 384-well black-walled plates. The following day, the media was removed from the plates and the cells were subsequently loaded with Fluo-3 (Molecular Probes), a calcium sensitive dye, diluted in FLIPR buffer (1× Hank's buffered saline containing 20 mM HEPES, 0.1% BSA, 2.5 mM probenecid (Sigma) and 1.6 mM TR40). All reagents are from Invitrogen unless otherwise noted. Peptide stocks were resuspended in DMSO at a stock concentration of 2 mM and diluted in FLIPR buffer on the day of the experiment to a 4 μM working stock solution.
(§4) After a 90 minute incubation at room-temperature, cell plates were loaded onto a FLIPR (Molecular Devices) to monitor cellular fluorescence (excitation=488 nm; emission=540 nm) before and after compound/peptide addition. Eight to twelve point dose responses were tested on NMUR-expressing cell lines using FLIPR with 1 μM peptide as the highest dose. The response after peptide addition was taken as the maximum fluorescence units minus the fluorescence immediately prior to stimulation for each well. EC50 values were calculated using GraphPad Prism (San Diego, Calif.) software.
(§5) In vitro responses of Neuromedin U receptor agonists (NMU1 to NMU25) in the FLIPR assay for human (Table 3), mouse (Table 4) and rat (Table 5) NMUR1 and NMUR2. EC50s are reported in nM values. Percent activity refers to the maximum response at 1 μM compared to the hNMU-25 response at the same concentration. NT=not tested.

For assay [1], the target named is T1, hNMUR2 (Homo sapiens, UniProt Q9GZQ4). Nature of the assay: FLIPR calcium mobilization assay, human NMUR2. Details: expressed in transfected cells; host or cells: FLP-In CHO or HEK-293 FLP-In cells (pcDNA5); HEK-293/aeq17 lines (pcDNA3.1) were also made. Particulars: human NMUR2; for % Activity: maximum response at 1 μM compared to hNMU-25; for EC50: FLIPR.
Source text: as §1, §2, §3, §4, §5
(Calcium assays in cells follow changes in intracellular calcium, usually with a dye or a luminescent sensor.)

Another assay has as its target T2, hNMUR1 (Homo sapiens, UniProt Q9HB89).
T2 sequence (Q9HB89 1-426): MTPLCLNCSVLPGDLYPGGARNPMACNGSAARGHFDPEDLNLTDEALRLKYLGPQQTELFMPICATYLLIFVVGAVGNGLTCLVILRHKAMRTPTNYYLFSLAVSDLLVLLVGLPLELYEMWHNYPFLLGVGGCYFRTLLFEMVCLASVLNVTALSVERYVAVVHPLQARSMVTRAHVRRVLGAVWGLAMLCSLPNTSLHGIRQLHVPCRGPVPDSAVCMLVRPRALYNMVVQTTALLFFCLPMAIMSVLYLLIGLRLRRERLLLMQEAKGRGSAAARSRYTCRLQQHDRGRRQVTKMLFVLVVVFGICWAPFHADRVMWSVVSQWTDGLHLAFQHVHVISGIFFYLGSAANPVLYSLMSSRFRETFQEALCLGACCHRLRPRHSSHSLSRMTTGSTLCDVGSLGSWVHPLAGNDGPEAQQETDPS
Nature of the assay: FLIPR calcium mobilization assay, human NMUR1. Also noted: expressed in transfected cells; host or cells: FLP-In CHO or HEK-293 FLP-In cells (pcDNA5); HEK-293/aeq17 lines (pIRES-puro) were also made. Particulars: human NMUR1; for % Activity: maximum response at 1 μM compared to hNMU-25 response at same concentration; for EC50: FLIPR.
Source text: as §1, §2, §3, §4, §5

The target of assay [2] is T1, hNMUR2. Nature of the assay: In vitro functional assay, HEK-hR2 cells. Details: expressed in transfected cells; host or cells: FLP-In CHO or HEK-293 FLP-In cells (pcDNA5); HEK-293/aeq17 lines (pcDNA3.1) were also made; % Activity: concentration or dose not given beside the values. The following applies: Table 9, HEK-hR2, functional.
Source text: as §1, §2, §3, §4
In addition to FLIPR, NMU receptor function can also be evaluated using an aequorin assay. Stable cell lines expressing the aequorin jelly fish gene can be used to report the activation of GPCRs by monitoring intracellular calcium mobilization. The objective is to identify compounds which specifically stimulate aequorin bioluminescence. Calcium-dependent luminescence is generated by the treatment of cells with the coelenterate luciferin, coelenterazine. Briefly, confluent monolayers of HEK-293/aeq 17 cells expressing hNMUR1 or hNMUR2 are “charged” with coelenterazine (Molecular Probes, Carlsbad, Calif.). Confluent T75 flasks are rinsed with media containing 300 μM glutathione and 0.1% FBS. Cells are incubated at 37° C. for one hour in 8 mL media, 0.1% FBS, 300 μM glutathione, and 20 μM coelenterazine. T75 flasks are subsequently rinsed with 6 mL ECB buffer (140 mM NaCl, 20 mM KCl, 20 mM HEPES, 5 mM glucose, 1 mM MgCl, 1 mM CaCl2, 0.1 mg/mL BSA, PH 7.3-7.4). Cells are removed from the flask in ECB buffer, pelleted, and resuspended at a density of 2×10^5 cells/mL. Agonists are added to the cells and activity is determined using a luminometer.

Residues, ends and D or L forms follow the SMILES beside them. *: point of attachment. Succinimide(1-Et,3-yl) = CCN1C(=O)CC(*)C1=O; Palmitoyl = CCCCCCCCCCCCCCCC(=O)*

T1 sequence (Q9GZQ4 whole entry): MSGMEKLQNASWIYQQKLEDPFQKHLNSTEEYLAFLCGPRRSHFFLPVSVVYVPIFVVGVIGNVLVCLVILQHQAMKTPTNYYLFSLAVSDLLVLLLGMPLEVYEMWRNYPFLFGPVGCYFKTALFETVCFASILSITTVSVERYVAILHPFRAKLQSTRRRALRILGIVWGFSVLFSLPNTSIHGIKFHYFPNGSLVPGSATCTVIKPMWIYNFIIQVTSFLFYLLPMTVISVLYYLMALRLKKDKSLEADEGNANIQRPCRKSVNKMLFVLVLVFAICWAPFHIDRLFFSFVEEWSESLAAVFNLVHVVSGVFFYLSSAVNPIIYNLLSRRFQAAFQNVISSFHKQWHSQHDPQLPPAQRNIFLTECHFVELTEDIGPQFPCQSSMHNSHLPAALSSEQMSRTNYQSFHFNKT
Sequence of mouse NMUR2 (Q8BZ39 whole entry): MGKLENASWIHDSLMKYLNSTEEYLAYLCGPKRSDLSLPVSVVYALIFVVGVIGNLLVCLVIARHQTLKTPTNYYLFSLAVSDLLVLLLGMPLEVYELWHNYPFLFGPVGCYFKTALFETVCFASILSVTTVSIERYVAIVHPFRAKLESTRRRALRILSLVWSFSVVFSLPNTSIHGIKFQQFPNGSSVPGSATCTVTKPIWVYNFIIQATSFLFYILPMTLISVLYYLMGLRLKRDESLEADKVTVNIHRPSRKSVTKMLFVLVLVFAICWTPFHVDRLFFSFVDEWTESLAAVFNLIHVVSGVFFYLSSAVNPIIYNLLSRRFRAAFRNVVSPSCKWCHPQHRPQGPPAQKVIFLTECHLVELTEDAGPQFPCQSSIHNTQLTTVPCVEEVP

As for `CCN1C(=O)CC(SC[C@H](NC(C)=O)C(=O)N[C@@H](Cc2ccccc2)C(=O)N[C@@H](CCCNC(=N)N)C(=O)N[C@H](C(=O)N[C@@H](CC(=O)O)C(=O)N[C@@H](CCC(=O)O)C(=O)N[C@@H](CCC(=O)O)C(=O)N[C@@H](Cc2ccccc2)C(=O)N[C@@H](CCC(N)=O)C(=O)N[C@@H](CO)C(=O)N2CCC[C@H]2C(=O)N[C@@H](Cc2ccccc2)C(=O)N[C@@H](C)C(=O)N[C@@H](CO)C(=O)N[C@@H](CCC(N)=O)C(=O)N[C@@H](CO)C(=O)N[C@@H](CCCNC(=N)N)C(=O)NCC(=O)N[C@@H](Cc2ccc(O)cc2)C(=O)N[C@@H](Cc2ccccc2)C(=O)N[C@@H](CC(C)C)C(=O)N[C@@H](Cc2ccccc2)C(=O)N[C@@H](CCCNC(=N)N)C(=O)N2CCC[C@H]2C(=O)N[C@@H](CCCNC(=N)N)C(=O)N[C@@H](CC(N)=O)C(N)=O)C(C)C)C1=O` (stereo partly drawn) [NMU8] (Ac-C(Succinimide(1-Et,3-yl))FRVDEEFQSPFASQSRGYFLFRPRN-NH2), the “% Activity” value on mouse NMUR2 is 100%; on hNMUR2 [1], 100%; at hNMUR1, 99.1%.
Regarding `CCCCCCCCCCCCCCCC(=O)N[C@@H](CSC1CC(=O)N(CC)C1=O)C(=O)N[C@@H](Cc1ccccc1)C(=O)N[C@@H](CCCNC(=N)N)C(=O)N[C@H](C(=O)N[C@@H](CC(=O)O)C(=O)N[C@@H](CCC(=O)O)C(=O)N[C@@H](CCC(=O)O)C(=O)N[C@@H](Cc1ccccc1)C(=O)N[C@@H](CCC(N)=O)C(=O)N[C@@H](CO)C(=O)N1CCC[C@H]1C(=O)N[C@@H](Cc1ccccc1)C(=O)N[C@@H](C)C(=O)N[C@@H](CO)C(=O)N[C@@H](CCC(N)=O)C(=O)N[C@@H](CO)C(=O)N[C@@H](CCCNC(=N)N)C(=O)NCC(=O)N[C@@H](Cc1ccc(O)cc1)C(=O)N[C@@H](Cc1ccccc1)C(=O)N[C@@H](CC(C)C)C(=O)N[C@@H](Cc1ccccc1)C(=O)N[C@@H](CCCNC(=N)N)C(=O)N1CCC[C@H]1C(=O)N[C@@H](CCCNC(=N)N)C(=O)N[C@@H](CC(N)=O)C(N)=O)C(C)C` (stereo partly drawn) [NMU24] (Palmitoyl-C(Succinimide(1-Et,3-yl))FRVDEEFQSPFASQSRGYFLFRPRN-NH2), the “% Activity” value is listed as 82.4% at mouse NMUR2, 63.9% on hNMUR2 [1] and 34.4% on hNMUR1.
`CCN1C(=O)CC(SC[C@H](NC(C)=O)C(=O)N[C@@H](C)C(=O)N[C@@H](CO)C(=O)N[C@@H](CCC(N)=O)C(=O)N[C@@H](CO)C(=O)N[C@@H](CCCNC(=N)N)C(=O)NCC(=O)N[C@@H](Cc2ccc(O)cc2)C(=O)N[C@@H](Cc2ccccc2)C(=O)N[C@@H](CC(C)C)C(=O)N[C@@H](Cc2ccccc2)C(=O)N[C@@H](CCCNC(=N)N)C(=O)N2CCC[C@H]2C(=O)N[C@@H](CCCNC(=N)N)C(=O)N[C@@H](CC(N)=O)C(N)=O)C1=O` (stereo partly drawn) [NMU17] (Ac-C(Succinimide(1-Et,3-yl))ASQSRGYFLFRPRN-NH2): the “% Activity” value on mouse NMUR2 stood at 100%; at hNMUR2 [1], 99.8%; on hNMUR1, 100%. Also, the EC50 on hNMUR2 [1] amounted to 1.5 nM.
With “Pam-C2FRVDEEFQSPFASQSRGYFLFRPRN-CONH2 ({Palmitoyl-C(PEG 40 kDa)}-FRVDEEFQSPFASQSRGYFLFRPRN-NH2) [NMU25, Pam = palmitoyl; C2 = Cys(PEG)240 kDa]”, the values for the EC50 in the assay with mouse NMUR2, in the assay with hNMUR2 [1] and with hNMUR1 were 18.8 nM, 44.1 nM and 168 nM, respectively. The “% Activity” value stood at 98.8% in the assay with hNMUR2 [1] and 83.0% in the assay with hNMUR1.
As to “Ac-C2FRVDEEFQSPFASQSRGYFLFRPRN-CONH2 [NMU9] ({Ac-C(PEG 40 kDa)}-FRVDEEFQSPFASQSRGYFLFRPRN-NH2) [C2 = Cys(PEG)240 kDa from Nektar (mPEG2-MAL-40 k)]”, the EC50 with mouse NMUR2 was determined as 19 nM; with hNMUR2 [1] it was 91.1 nM; in the assay with hNMUR1 it was 50.6 nM. Also, the “% Activity” value with hNMUR2 [1] is reported as 94.3%; in the assay with hNMUR1, 94.4%.
Consider “Ac-C4-C4-FRVDEEFQSPFASQSRGYFLFRPRN-CONH2 ({Ac-C(PEG 20 kDa)-C(PEG 20 kDa)}-FRVDEEFQSPFASQSRGYFLFRPRN-NH2) [NMU23, C4 = Cys(PEG)20 kDa]”, for which the values for the EC50 with mouse NMUR2 and with hNMUR1 were 21.3 nM and 300 nM, respectively. For the same molecule, the “% Activity” value in the assay with hNMUR1 turned out to be 66.9%.
As to “H-FRVDEEFQSPFASQSRGYFLFRPRN-NH2 [hNMU-25, reference compound]”, the IC50 at mouse NMUR2 (functional data, mouse R2) was found to be 0.2 nM. For the same molecule, on hNMUR2 [2], the “% Activity” value was 100% and a half-maximal response (EC50) required 1.5 nM.
“Ac-C4FRVDEEFQSPFASQSRGYFLFRPRN-CONH2 ({Ac-C(PEG 20 kDa)}-FRVDEEFQSPFASQSRGYFLFRPRN-NH2) [NMU21, C4 = Cys(PEG)20 kDa]”: in the assay with hNMUR2 [1], the EC50 stood at 24.2 nM and the “% Activity” value turned out to be 97.9%. In addition, in the assay with hNMUR1, the EC50 is 14.5 nM and the “% Activity” value is 93.2%.
